Test results reported in publication PMC7546529 (Nature microbiology, 2020).

Target: the molecule itself
Assay: cryo-EM structure

B1: portal protein (BBRF1 gene-encoded portal complex) (natural protein)
chain: MFNMNVDESASGALGSSAIPVHPTPASVRLFEILQGKYAYVQGQTIYANLRNPGVFSRQVFTHLFKRAISHCTYDDVLHDWNKFEACIQKRWPSDDSCASRFRESTFESWSTTMKLTVRDLLTTNIYRVLHSRSVLSYERYVDWICATGMVPAVKKPITQELHSKIKSLRDRCVCRELGHERTIRSIGTELYEATKEIIESLNSTFIPQFTEVTIEYLPRSDEYVAYYCGRRIRLHVLFPPAIFAGTVTFDSPVQRLYQNIFMCYRTLEHAKICQLLNTAPLKAIVGHGGRDMYKDILAHLEQNSQRKDPKKELLNLLVKLSENKTISGVTDVVEEFITDASNNLVDRNRLFGQPGETAAQGLKKKVSNTVVKCLTDQINEQFDQINGLEKERELYLKKIRSMESQLQASLGPGGNNPAASAPAAVAAEAASVDILTGSTASAIEKLFNSPSASLGARVSGHNESILNSFVSQYIPPSREMTKDLTELWESELFNTFKLTPVVDNQGQRLYVRYSSDTISILLGPFTYLVAELSPVELVTDVYATLGIVEIIDELYRSSRLAIYIEDLGRKYCPASATGGDHGIRQAPSARGDTEPDHAKSKPARDPPPGAGS
stoichiometry N: 12
